Experimental findings from the Immune Epitope Database (IEDB) are described below.

The IC50 is the concentration that inhibits the measured activity by half. Higher therefore signals weaker potency. One may read the Kd as the concentration at which binding is half-saturated. A high value points to lower affinity.

The target in assay [1] is HLA-A*02:01. Description: IEDB peptide-MHC binding, purified MHC/competitive/fluorescence; ≥ and ≤ were set here for values at or beyond the usual limits of such assays. To be noted: source organism: Zaire ebolavirus.
The target of assay [2] is HLA-B*07:02. The assay is described as above. Conditions: source organism: Zaire ebolavirus.
The target of the next assay is HLA-A*24:02. The description is as above. To be noted: source organism: Zaire ebolavirus.
Assay [3] deals with HLA-B*07:02. Description: IEDB peptide-MHC binding, purified MHC/direct/fluorescence; filed as Kd, often an IC50 or EC50 that approximates it; ≥ and ≤ were set here for values at or beyond the usual limits of such assays.
Assay [4] deals with HLA-B*15:01. The assay is described as above.
In assay [5] the target is HLA-B*51:01. The description is as above. Conditions: source organism: Yersinia pestis.
For assay [6], the target named is HLA-A*03:01. Description: IEDB peptide-MHC binding, purified MHC/competitive/fluorescence; ≥ and ≤ were set here for values at or beyond the usual limits of such assays.
Another assay addresses HLA-A*11:01. The description is as above.
The target of assay [7] is HLA-B*15:01. Described as above. To be noted: source organism: Zaire ebolavirus.
Another assay addresses HLA-A*02:12. Description: IEDB peptide-MHC binding, purified MHC/direct/fluorescence; filed as Kd, often an IC50 or EC50 that approximates it; ≥ and ≤ were set here for values at or beyond the usual limits of such assays.
Another assay deals with HLA-A*02:03. The assay is described as above.
Another assay deals with HLA-A*29:02. Described as above.
The next assay has as its target HLA-A*24:03. The description is as above.
In a further assay the target is HLA-A*68:02. Described as above. Conditions: source organism: Zaire ebolavirus.
The target in another assay is HLA-A*02:19. Described as above.
A further assay addresses HLA-A*02:11. The description is as above.
In assay [8] the target is HLA-A*03:01. The description is as above.
Another assay has as its target HLA-A*02:16. Described as above.
Assay [9] concerns the target HLA-B*57:01. Description: IEDB peptide-MHC binding, purified MHC/competitive/fluorescence; filed as Kd, often an IC50 or EC50 that approximates it; ≥ and ≤ were set here for values at or beyond the usual limits of such assays.
Assay [10] deals with HLA-A*02:01. The assay is described as above.
The target of a further assay is HLA-B*27:03. Described as above.
In assay [11] the target is HLA-B*18:01. The assay is described as above. Conditions: source organism: Zaire ebolavirus.
For assay [12], the target named is HLA-B*39:01. Described as above. To be noted: source organism: Zaire ebolavirus.
Assay [13] deals with HLA-B*15:01. The assay is described as above.
The next assay deals with HLA-A*26:01. The description is as above.
Assay [14] addresses HLA-B*51:01. The assay is described as above.
Assay [15] addresses HLA-A*69:01. The description is as above. Conditions: source organism: Zaire ebolavirus.
In another assay the target is HLA-B*15:17. The description is as above.
In assay [16] the target is HLA-B*46:01. The description is as above.
Assay [17] has as its target HLA-B*57:01. Description: IEDB peptide-MHC binding, purified MHC/direct/fluorescence; filed as Kd, often an IC50 or EC50 that approximates it; ≥ and ≤ were set here for values at or beyond the usual limits of such assays. Conditions: source organism: Mycobacterium tuberculosis.
The target of another assay is HLA-B*48:01. The assay is described as above. To be noted: source organism: Mycobacterium tuberculosis.
The next assay concerns the target HLA-A*01:01. The description is as above. Conditions: source organism: Mycobacterium tuberculosis.
A further assay has as its target HLA-B*27:05. The description is as above. Conditions: source organism: Mycobacterium tuberculosis.
For a further assay, the target named is HLA-A*31:01. The assay is described as above. To be noted: source organism: Mycobacterium tuberculosis.
Assay [18] addresses HLA-B*18:01. Described as above. Conditions: source organism: Mycobacterium tuberculosis.
The target in another assay is HLA-B*58:01. Described as above. To be noted: source organism: Mycobacterium tuberculosis.
In assay [19] the target is HLA-B*39:01. Described as above. Conditions: source organism: Mycobacterium tuberculosis.
In another assay the target is HLA-B*44:02. Described as above. To be noted: source organism: Mycobacterium tuberculosis.
Assay [20] has as its target HLA-A*69:01. Described as above. To be noted: source organism: Mycobacterium tuberculosis.
Assay [21] concerns the target HLA-B*46:01. The description is as above. To be noted: source organism: Mycobacterium tuberculosis.
The target of a further assay is HLA-B*40:01. The description is as above. Conditions: source organism: Orthohantavirus negraense.
Setting [22] is: source organism: Vaccinia virus Copenhagen.
[23] abbreviates: source organism: Zaire ebolavirus.
The mark [24] stands for this setting: source organism: Vaccinia virus WR.
Setting [25] is: source organism: Mycobacterium tuberculosis.
[26] abbreviates: source organism: Convict Creek 107 virus.
[27] abbreviates: source organism: Orthohantavirus sinnombreense.

IVKTVLDHI: the IC50 was no less than 91.6 µM in the assay with HLA-A*02:01 [1], no less than 170 µM in the assay with HLA-B*07:02 [2] and 6.71 µM with HLA-A*24:02.
Turning to LPLEFWQAW, the Kd was 0.235 µM in the assay with HLA-B*07:02 [3] (source organism: Yersinia pestis), no less than 20 µM in the assay with HLA-B*15:01 [4] (source organism: Yersinia enterocolitica subsp. enterocolitica 8081) and no less than 20 µM in the assay with HLA-B*51:01 [5].
For TKITFALKK, the IC50 was determined as 39.6 µM with HLA-A*03:01 [6] (setting [22]) and 11.1 µM with HLA-A*11:01 (setting [22]).
Consider QSVGHMMVI, for which the half-inhibitory concentration (IC50) was 4.89 µM with HLA-A*02:01 [1], 34.5 µM with HLA-B*07:02 [2], no less than 143 µM with HLA-B*15:01 [7] and 3.77 µM with HLA-A*24:02.
For the sequence HHAYQGDYK, the IC50 is 46 µM with HLA-A*03:01 [6] (setting [23]) and no less than 70.5 µM with HLA-A*11:01 (setting [23]).
Taken in the same sequence, the figures for GHGFRFEVK were 6.42 µM and 3.17 µM.
LFPQLSAIA: the 50% inhibitory concentration (IC50) was 32.7 µM in the assay with HLA-A*02:01 [1], no less than 142 µM with HLA-B*07:02 [2] and 13.9 µM with HLA-A*24:02.
KGYVVSRRG: in the assay with HLA-A*03:01 [6] (setting [24]), the IC50 was no less than 102 µM.
Consider AFHQLVQVI, for which the Kd is no less than 20 µM in the assay with HLA-A*02:12 (setting [23]); no less than 20 µM with HLA-A*02:03 (setting [23]); no less than 20 µM with HLA-A*29:02 (setting [23]); 0.0021 µM in the assay with HLA-A*24:03 (source organism: Reston ebolavirus - Reston); no less than 20 µM with HLA-A*68:02; no less than 20 µM in the assay with HLA-A*02:19 (setting [23]). Besides, the Kd with HLA-A*02:11 (setting [23]), with HLA-A*03:01 [8] (setting [23]), with HLA-A*02:16 (setting [23]), in the assay with HLA-B*57:01 [9] (setting [23]), with HLA-A*02:01 [10] (setting [23]) and with HLA-B*27:03 (setting [23]) was no less than 20 µM in each case. The Kd with HLA-B*18:01 [11], with HLA-B*39:01 [12], with HLA-B*15:01 [13] (setting [23]), with HLA-A*26:01 (setting [23]), with HLA-B*51:01 [14] (setting [23]) and with HLA-A*69:01 [15] was no less than 20 µM in each case. In addition, the Kd with HLA-B*15:17 (setting [23]) and with HLA-B*46:01 [16] (setting [23]) was no less than 20 µM in each case.
Turning to QQDTNSAGL, the dissociation constant (Kd) with HLA-B*57:01 [17], with HLA-B*48:01, with HLA-A*29:02 (setting [25]), with HLA-A*01:01, in the assay with HLA-B*27:05 and with HLA-A*31:01 was no less than 20 µM in each case. The Kd with HLA-B*18:01 [18] was no less than 20 µM; in the assay with HLA-B*07:02 [3] (setting [25]), no less than 20 µM; with HLA-B*58:01, no less than 20 µM; with HLA-B*39:01 [19], 0.301 µM; with HLA-A*03:01 [8] (setting [25]), no less than 20 µM; in the assay with HLA-B*15:01 [4] (setting [25]), no less than 20 µM. For the same sequence, the Kd with HLA-B*44:02, with HLA-A*69:01 [20] and with HLA-B*46:01 [21] was no less than 20 µM throughout.
As for TEFFMSRKL, the Kd is no less than 20 µM in the assay with HLA-A*02:12 (setting [26]); no less than 20 µM with HLA-A*02:03 (setting [26]); no less than 20 µM with HLA-A*29:02 (setting [26]); 0.0014 µM with HLA-B*40:01; no less than 20 µM in the assay with HLA-A*24:03 (setting [26]); no less than 20 µM in the assay with HLA-A*02:19 (setting [26]). The dissociation constant (Kd) with HLA-A*02:11 (setting [26]), with HLA-A*03:01 [8] (setting [26]), with HLA-A*02:16 (setting [26]), with HLA-B*57:01 [9] (setting [27]), with HLA-A*02:01 [10] (setting [27]) and in the assay with HLA-B*27:03 (setting [27]) was no less than 20 µM in each case. The Kd with HLA-B*15:01 [13] (setting [27]), in the assay with HLA-A*26:01 (setting [27]), in the assay with HLA-B*51:01 [14] (setting [27]), with HLA-B*15:17 (setting [27]) and with HLA-B*46:01 [16] (setting [27]) was no less than 20 µM throughout.
Turning to AVIRANNNR, the IC50 in the assay with HLA-A*03:01 [6] (setting [24]) amounted to 5.9 µM; with HLA-A*11:01 (setting [24]), 2.16 µM.
As to KVSGTGPCA, the concentration for half-maximal inhibition (IC50) in the assay with HLA-A*02:01 [1] was no less than 118 µM; with HLA-B*07:02 [2], no less than 96.8 µM.
